This series relates to T1, thrombin cleavable peptide GGLVPRGSGGC
T1 sequence: GGLVPRGSGGC

For thrombin, the “cleavage of the peptide by thrombin, LCMS analysis” value is given as “the peptides were efficiently cleaved after 12 h incubation with 1 U mL^-1 thrombin in Tris buffer”.

The values are drawn from US20180214476.
